Reference: PMC8509414, “A Novel GUCA1A Variant Associated with Cone Dystrophy Alters cGMP Signaling in Photoreceptors by Strongly Interacting with and Hyperactivating Retinal Guanylate Cyclase” (International Journal of Molecular Sciences, 2021)

Legend:
[1] = molecular target: the molecule itself; test: SEC; analytical gel filtration, Superose 12 10/300, 20 mM Tris-HCl pH 7.5, 150 mM KCl, 1 mM DTT, 500 µM EGTA + 1 mM Mg2+ or 1 mM Mg2+ + 1 mM Ca2+, room temperature; protein 20 µM (methods) or ~45 µM; apparent MW from a calibration curve
[2] = molecular target: T1, human recombinant ROS-GC1 (retinal guanylate cyclase 1) (human, UniProt Q02846 52-1103); test: cell-based or functional assay
T1 sequence (looked up): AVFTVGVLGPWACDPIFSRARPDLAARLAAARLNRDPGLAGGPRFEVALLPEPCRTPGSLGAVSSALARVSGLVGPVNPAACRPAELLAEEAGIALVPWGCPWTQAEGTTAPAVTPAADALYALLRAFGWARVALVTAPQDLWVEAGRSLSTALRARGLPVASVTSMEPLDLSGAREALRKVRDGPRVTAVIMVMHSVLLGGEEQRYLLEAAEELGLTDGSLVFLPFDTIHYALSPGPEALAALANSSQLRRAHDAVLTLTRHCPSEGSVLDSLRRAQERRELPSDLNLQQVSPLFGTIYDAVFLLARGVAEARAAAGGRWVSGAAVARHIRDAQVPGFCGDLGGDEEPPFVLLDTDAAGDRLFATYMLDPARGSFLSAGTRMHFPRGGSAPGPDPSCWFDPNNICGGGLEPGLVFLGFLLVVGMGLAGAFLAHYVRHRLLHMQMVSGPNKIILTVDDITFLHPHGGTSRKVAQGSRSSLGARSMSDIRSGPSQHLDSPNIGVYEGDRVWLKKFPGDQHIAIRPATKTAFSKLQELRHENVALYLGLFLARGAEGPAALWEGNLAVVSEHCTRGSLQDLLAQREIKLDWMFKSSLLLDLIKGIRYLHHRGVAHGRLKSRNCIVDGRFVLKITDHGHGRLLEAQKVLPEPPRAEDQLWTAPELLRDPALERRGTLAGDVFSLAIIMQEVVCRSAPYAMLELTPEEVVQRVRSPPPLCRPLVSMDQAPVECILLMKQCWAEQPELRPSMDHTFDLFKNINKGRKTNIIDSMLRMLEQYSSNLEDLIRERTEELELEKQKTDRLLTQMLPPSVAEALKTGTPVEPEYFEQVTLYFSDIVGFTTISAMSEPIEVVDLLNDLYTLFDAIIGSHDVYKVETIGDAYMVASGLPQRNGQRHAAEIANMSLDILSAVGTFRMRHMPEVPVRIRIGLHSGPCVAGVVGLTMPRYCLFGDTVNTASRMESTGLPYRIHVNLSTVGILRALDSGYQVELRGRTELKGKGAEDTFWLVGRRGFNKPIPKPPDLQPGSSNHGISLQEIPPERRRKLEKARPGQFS

B1: N104H-GCAP1 (guanylate cyclase-activating protein 1, variant p.Asn104His, in the E6S background) (natural protein, human, UniProt P43080 1-201, looked up)
chain: MGNVMSGKSVEELSSTECHQWYKKFMTECPSGQLTLYEFRQFFGLKNLSPSASQYVEQMFETFDFNKDGYIDFMEYVAALSLVLKGKVEQKLRWYFKLYDVDGHGCIDRDELLTIIQAIRAINPCSDTTMTAEEFTDTVFSKIDVNGDGELSLEEFIEGVQKDQMLLDTLTRSLDLTRIVRRLQNGEQDEEGADEAAEAAG
modifications: N-terminal myristoylation (by co-expressed S. cerevisiae N-myristoyl transferase, yNMT)
notes: cDNA of GCAP1-E6S in pET-11a (NdeI/NheI); c.310A>C p.(Asn104His) introduced by site-directed mutagenesis; N104H is a patient variant; E6S was put in by the authors to give the consensus for myristoylation by yNMT; No tag is mentioned; Myristoylation on Gly2 implies loss of the initiator Met (surmise); also called N104H-GCAP1 variant; p.N104H; source: E. coli BL21 co-transformed with pBB131-yNMT
stoichiometry N [1]: 2
GC activity (cGMP synthesis, HPLC) of HEK293 membranes with human GC as a function of N104H-GCAP1 concentration (0-10 µM) at <19 nM free Ca2+; EC50 = [N104H] at which GC activity is half-maximal [2]: 1.6 µM
